Reference: patent US20260167721A1 (ABLEXIS, published 2026)
Substitutions are numbered along the chain they refer to.

B1: ABL-CD3-9 (antibody, V domains shown)
VH: EVQLVDSGGGLVKPGGSLRLSCAASGFTFSSYSMNWVRQAPGKGLEWVSSVNSRGSYIYYADSVKGRFTISRDNAKNSLYLQMNSLRADDTAVYYCARDRRELLLDYWGQGTLVTVSS
VL: SYELTQPPSVSVSPGQTARITCSGDALPKKYAYWYQQKSGQAPVLVIYEDSKRPSGIPERFSGSSSGTMATLTISGAQVEDEADYYCYSTDSSGNHCWVFGGGTKLTVL
notes: Chimeric hybridoma mAb: human V, CH1, upper hinge; mouse middle hinge, CH2, CH3
B2: ABL-CD3-35 (antibody, V domains shown)
VH: B1 VH with D6E, N77D
VL: B1 VL
notes: as for B1
B3: Gemtuzumab (antibody, V domains shown)
VH: EVQLVQSGAEVKKPGSSVKVSCKASGYTITDSNIHWVRQAPGQSLEWIGYIYPYNGGTDYNQKFKNRATLTVDNPTNTAYMELSSLRSEDTAFYYCVNGNPWLAYWGQGTLVTVSS
VL: DIQLTQSPSTLSASVGDRVTITCRASESLDNYGIRFLTWFQQKPGKAPKLLMYAASNQGSGVPSRFSGSGSGTEFTLTISSLQPDDFATYYCQQTKEVPWSFGQGTKVEVKR
notes: also called anti-CD33 control
B4: CD3 × CD33-BspAb44 (bispecific antibody)
chain 1: EVQLVESGGGLVKPGGSLRLSCAASGFTFSRYSMNWVRQAPGKCLKWVSSISSSGSYKYYADSVKGRFTISRDNAKNSLYLQMNSLRAEDTAVYYCAREPPTLGMDYWGQGTLVTVSSGGGGSGGGGSGGGGSGGGGSNFMLTQPHSVSESPGKTVTISCTRSSGSIASNYVQWYQQRPGSSPTTVIYEDNQRPSGVPDRFSGSIDSSSNSASLTISGLKTEDEADYYCQSFDNSNRVFGCGTKLTVLDKTHTCPPCPAPEFEGGPSVFLFPPKPKDTLMISRTPEVTCVVVDVSHEDPEVKFNWYVDGVEVHNAKTKPREEQYNSTYRVVSVLTVLHQDWLNGKEYKCKVSNKALPASIEKTISKAKGQPREPQVYTLPPCREEMTKNQVSLWCLVKGFYPSDIAVEWESNGQPENNYKTTPPVLDSDGSFFLYSKLTVDKSRWQQGNVFSCSVMHEALHNHYTQKSLSLSPGK
chain 2: EVQLVQSGAEVKKPGSSVKVSCKASGYTITDSNIHWVRQAPGQSLEWIGYIYPYNGGTDYNQKFKNRATLTVDNPTNTAYMELSSLRSEDTAFYYCVNGNPWLAYWGQGTLVTVSSASTKGPSVFPLAPSSKSTSGGTAALGCLVKDYFPEPVTVSWNSGALTSGVHTFPAVLQSSGLYSLSSVVTVPSSSLGTQTYICNVNHKPSNTKVDKRVEPKSCDKTHTCPPCPAPEFEGGPSVFLFPPKPKDTLMISRTPEVTCVVVDVSHEDPEVKFNWYVDGVEVHNAKTKPREEQYNSTYRVVSVLTVLHQDWLNGKEYKCKVSNKALPASIEKTISKAKGQPREPQVCTLPPSREEMTKNQVSLSCAVKGFYPSDIAVEWESNGQPENNYKTTPPVLDSDGSFFLVSKLTVDKSRWQQGNVFSCSVMHEALHNRFTQKSLSLSPGK
chain 3: DIQLTQSPSTLSASVGDRVTITCRASESLDNYGIRFLTWFQQKPGKAPKLLMYAASNQGSGVPSRFSGSGSGTEFTLTISSLQPDDFATYYCQQTKEVPWSFGQGTKVEVKRTVAAPSVFIFPPSDEQLKSGTASVVCLLNNFYPREAKVQWKVDNALQSGNSQESVTEQDSKDSTYSLSSTLTLSKADYEKHKVYACEVTHQGLSSPVTKSFNRGEC
B5: CD3 × CD33-BspAb48 (bispecific antibody)
chain 1: QVTLKESGPGILQPSQTLSLTCSFSGFSLSTFGMGVGWIRQPSGKCLEWLAHIWWDDDKYYNPALKSRLTISKDTSKNQVFLKIANVDTADTATYYCARLGYYPYWFFDVWGTGTTVTVSSGGGGSGGGGSGGGGSGGGGSNFMLTQPHSVSESPGKTVTIACTRSSGSIASNYVQWYQQRPGSSPTTVIYEDNQRPSGVPDRFSGSIDSSSNSASLTISGLKTEDEADYYCQSYDSSNQVFGCGTKLTVLDKTHTCPPCPAPEFEGGPSVFLFPPKPKDTLMISRTPEVTCVVVDVSHEDPEVKFNWYVDGVEVHNAKTKPREEQYNSTYRVVSVLTVLHQDWLNGKEYKCKVSNKALPASIEKTISKAKGQPREPQVYTLPPCREEMTKNQVSLWCLVKGFYPSDIAVEWESNGQPENNYKTTPPVLDSDGSFFLYSKLTVDKSRWQQGNVFSCSVMHEALHNHYTQKSLSLSPGK
chain 2: B4 chain 2
chain 3: B4 chain 3
B6: CD3 × CD33-BspAb79 (bispecific antibody)
chain 1: QVQLQESGPGLVKPSETLSLTCTVSGGSISSYYWSWIRQPAGKCLEWIGRIYASGSTYYNPSLKSRVTMSVDTSKNQFSLKLSSVTAADTAVYYCAREKRSRLYFDYWGQGTLVTVSSGGGGSGGGGSGGGGSGGGGSNFMLTQPHSVSESPGKTVTISCTRSSGSIASNYVQWYQQRPGSSPTTVIYEDNQRPSGVPDRFSGSIDSSSNSASLTISGLKTEDEGDYYCQSYDRSNRVFGCGTKLTVLDKTHTCPPCPAPEFEGGPSVFLFPPKPKDTLMISRTPEVTCVVVDVSHEDPEVKFNWYVDGVEVHNAKTKPREEQYNSTYRVVSVLTVLHQDWLNGKEYKCKVSNKALPASIEKTISKAKGQPREPQVYTLPPCREEMTKNQVSLWCLVKGFYPSDIAVEWESNGQPENNYKTTPPVLDSDGSFFLYSKLTVDKSRWQQGNVFSCSVMHEALHNHYTQKSLSLSPGK
chain 2: B4 chain 2
chain 3: B4 chain 3
B7: ABL-CD3-45 (antibody, V domains shown)
VH: EVQLVESGGGLVQPGGSLRLSCAASGFTFSSYWMSWVRQAPGKGLEWVANIKEDGSEKYYVDSVKGRFTISRDNAKNSLYLQMNSLRAEDTAVYYCARERRTGYLDYWGQGTLVTVSS
VL: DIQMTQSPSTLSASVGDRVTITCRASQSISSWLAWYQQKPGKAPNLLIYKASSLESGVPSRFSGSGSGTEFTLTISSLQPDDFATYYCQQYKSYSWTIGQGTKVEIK
notes: as for B1

What was measured:
[1] = target: T1, recombinant human CD3 epsilon/gamma heterodimer (human, UniProt P07766 23-126; P09693 23-116); test: Octet BLI, mAb on FAB2G sensor, hCD3 E/G 200-50 nM; R^2 0.84
T1 construct: Recombinant protein in solution (200-50 nM) in the Octet assay; also called hCD3 E/G
Method: (§1) Samples were evaluated by flow cytometry analysis against Jurkat and human Pan-T cells (FIG. 1B) as well as by Octet against recombinant human CD3 proteins to evaluate apparent affinities and binding off-rates (Table 6, infra).

[2] = target: T2, recombinant human CD3 epsilon/delta heterodimer (human, UniProt P07766 23-126; P04234 22-105); test: Octet BLI, mAb on FAB2G sensor, hCD3 E/D 200-50 nM; R^2 0.99
T2 construct: Recombinant protein in solution (200-50 nM) in the Octet assay; also called hCD3 E/D; human CD3E/D

[3] = target: T2, recombinant human CD3 epsilon/delta …; test: Octet BLI, mAb on FAB2G sensor, hCD3 E/D 200-50 nM; R^2 0.97
Method: as §1

[4] = target: T3, human CD3 (TCR/CD3 complex) on the cell surface (human, UniProt P07766 23-207; P09693 23-182; P04234 22-171; P20963 22-164); test: flow cytometry, Pan-T cells, 10 ug/mL
T3 construct: whole, on cells; also called CD3 on Pan-T cells; CD3 on Jurkat WT cells

[5] = target: T3, human CD3 (TCR/CD3 complex) on the cell …; test: flow cytometry, Pan-T cells, 1 ug/mL
[6] = target: T3, human CD3 (TCR/CD3 complex) on the cell …; test: flow cytometry, gMFI Jurkat WT over Jurkat TCRb KO, 10 ug/mL
[7] = target: T3, human CD3 (TCR/CD3 complex) on the cell …; test: flow cytometry, Jurkat WT cells, 1 ug/mL
[8] = target: T3, human CD3 (TCR/CD3 complex) on the cell …; test: flow cytometry, Jurkat WT cells, 10 ug/mL
[9] = target: T3, human CD3 (TCR/CD3 complex) on the cell …; test: flow cytometry, gMFI Jurkat WT over Jurkat TCRb KO, 1 ug/mL
recombinant CD3 proteins = target: T4, recombinant CD3 proteins (UniProt P07766 23-126); test: Octet BLI, recombinant CD3; Full R^2 0.997
T4 construct: elsewhere it uses human CD3 E/D and E/G heterodimers

[10] = target: T2, recombinant human CD3 epsilon/delta …; test: Octet BLI, mAb on FAB2G sensor, hCD3 E/D 200-50 nM; R^2 1.00

T3 sequence (P07766 23-207, chain 1 of 4): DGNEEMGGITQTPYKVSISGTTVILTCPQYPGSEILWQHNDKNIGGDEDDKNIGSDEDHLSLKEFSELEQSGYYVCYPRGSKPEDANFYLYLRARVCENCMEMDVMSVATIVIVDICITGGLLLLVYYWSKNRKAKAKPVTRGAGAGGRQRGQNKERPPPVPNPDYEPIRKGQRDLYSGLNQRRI
T3 sequence (P09693 23-182, chain 2 of 4): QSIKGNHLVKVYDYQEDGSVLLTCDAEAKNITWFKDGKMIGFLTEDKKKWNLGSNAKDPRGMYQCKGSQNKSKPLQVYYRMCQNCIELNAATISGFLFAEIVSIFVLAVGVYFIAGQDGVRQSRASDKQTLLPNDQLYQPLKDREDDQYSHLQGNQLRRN
T3 sequence (P04234 22-171, chain 3 of 4): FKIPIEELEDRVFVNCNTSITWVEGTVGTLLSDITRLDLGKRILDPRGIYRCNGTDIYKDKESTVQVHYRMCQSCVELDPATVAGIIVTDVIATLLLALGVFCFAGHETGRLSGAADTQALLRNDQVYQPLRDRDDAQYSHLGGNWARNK
T3 sequence (P20963 22-164, chain 4 of 4): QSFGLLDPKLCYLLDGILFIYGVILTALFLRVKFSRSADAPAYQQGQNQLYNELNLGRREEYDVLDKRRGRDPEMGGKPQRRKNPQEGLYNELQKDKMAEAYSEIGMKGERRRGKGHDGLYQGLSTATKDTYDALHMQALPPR
T2 sequence (P07766 23-126, stated change not applied, chain 1 of 2): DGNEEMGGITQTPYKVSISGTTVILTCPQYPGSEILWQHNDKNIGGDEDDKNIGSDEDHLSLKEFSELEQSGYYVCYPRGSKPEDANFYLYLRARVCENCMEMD
T2 sequence (P04234 22-105, stated change not applied, chain 2 of 2): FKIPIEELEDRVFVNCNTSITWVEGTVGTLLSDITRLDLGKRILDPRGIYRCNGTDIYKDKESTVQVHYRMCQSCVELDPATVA
T4 sequence (P07766 23-126): as the sequence (P07766 23-126, stated change not applied, chain 1 of 2) above
T1 sequence (P07766 23-126, chain 1 of 2): as the sequence (P07766 23-126, stated change not applied, chain 1 of 2) above
T1 sequence (P09693 23-116, chain 2 of 2): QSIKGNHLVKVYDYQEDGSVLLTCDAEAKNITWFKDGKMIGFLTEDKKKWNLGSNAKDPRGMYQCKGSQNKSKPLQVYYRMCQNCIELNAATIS

Binder | Kd [1] [nM] | Response [1] | koff [1] [s⁻¹] | kon [1] [M⁻¹ s⁻¹] | % Positive [4] [%] | gMFI [4] [gMFI] | % Positive [5] [%] | gMFI [5] [gMFI] | Jurkat WT/KO (Fold) [6] [fold] | gMFI [7] [gMFI] | gMFI [8] [gMFI] | Jurkat WT/KO (Fold) [9] [fold] | also measured
B1 | 110 | 0.1 | 0.114 | 1.04e+06 |  |  |  |  |  |  |  |  | Kd [2]: 70.8 nM; Response [2]: 0.34; koff [2]: 0.0393 s⁻¹; kon [2]: 555000 M⁻¹ s⁻¹
B2 | 14.2 | 0.12 | 0.0144 | 1.02e+06 |  |  |  |  |  |  |  |  | Kd [3]: 54.7 nM; Response [3]: 0.36; koff [3]: 0.0271 s⁻¹; kon [3]: 495000 M⁻¹ s⁻¹
B3 |  |  |  |  | 0.7 | 1680 | 1.2 | 1770 | 0.9 | 1650 | 1690 | 0.9 | 
B4 |  |  |  |  | 99.5 | 508000 | 99.5 | 475000 | 12.9 | 57500 | 54200 | 13.1 | 
B5 |  |  |  |  | 82.2 | 12200 | 3.4 | 2870 | 2.5 | 2260 | 5170 | 1.1 | 
B6 |  |  |  |  |  |  |  |  |  |  |  |  | Kd (recombinant CD3 proteins): 456 nM; koff (recombinant CD3 proteins): 0.0829 s⁻¹; kon (recombinant CD3 proteins): 182000 M⁻¹ s⁻¹
B7 | 15.8 | 0.03 | 0.00375 | 237000 |  |  |  |  |  |  |  |  | Kd [10]: 13.7 nM; Response [10]: 0.2; koff [10]: 0.000475 s⁻¹; kon [10]: 34600 M⁻¹ s⁻¹
